Assays:
[1] = substrate: COc1cc(/C=C/CO)cc(OC)c1O; assay: HPLC of glucoside product, double reciprocal plot; type: biochemical, Pyrus x bretschneideri; conditions: 2.5 mM UDP-glucose, 50 mM MgSO4, 200 mM KCl, 100 mM PBS pH 7.2–7.4, 35 °C, 0.1% β-mercaptoethanol, pH 7.0
Description: (§1) HPLC of glucoside product, double reciprocal plot on PbUGT72AJ2

[2] = substrate: COc1cc(/C=C/CO)ccc1O; assay: HPLC of glucoside product, double reciprocal plot; type: biochemical, Pyrus x bretschneideri; conditions: 2.5 mM UDP-glucose, 50 mM MgSO4, 200 mM KCl, 100 mM PBS pH 7.2–7.4, 35 °C, 0.1% β-mercaptoethanol, pH 7.0
Description: as §1

B1: PbUGT72AJ2 (Pyrus x bretschneideri) (protein)
chain: MSSKPHAAILCSPGLGHLIPSLELAKRLVTHRNFTVTIFAIPSPTSKTESELLKAAATPKFFDIIELPPPDISGCVGPNVAVVTLLAVMMREVRPAFRSAILGMEYSLRPTVLIVDLFSTESLSIGDELGIPKYVYVASTAWLVALTVYVPVFDREMEGEYVDQTEPLRIPGCKPVQPDDVVDPMLDRTDQQYLEYVRIGTNFPKSDGILMNTWEDLEHKTIDALRDEGLLGRVAKVPIYPIGPLTRSVQSAGSTSTGLREEGLFNWLDKQPCESVIFVSLGSGGTVSFEQMTEMAWGLELSKQRFIWVVRPPAKSADAAYFTSGNRDDDPSTYLPKGFLTRTHDVGLVVHLWAPQVDILSHPSIGGFWSHCGWNSSLESITNEVPMIVWPLHAEQRINATMLTEELGVAVRSKVLPLKKVVDREEIKEMVRKIMVDKDGQAIRGRVKELKLSAAKAWSVGGSSYNAISQISSGNQRKC
Km [1]: 144.13 ± 22.31 µM
Vmax [1]: 3.32 µM/min/mg
kcat [1]: 0.44 ± 0.03 s⁻¹
kcat/Km [1]: 3050 ± 250 M⁻¹ s⁻¹
Km [2]: 117.83 ± 7.94 µM
Vmax [2]: 4.23 µM/min/mg
kcat [2]: 0.55 ± 0.02 s⁻¹
kcat/Km [2]: 4670 ± 130 M⁻¹ s⁻¹

Source: paper PMC9318811, “PbUGT72AJ2-Mediated Glycosylation Plays an Important Role in Lignin Formation and Stone Cell Development in Pears (Pyrus bretschneideri)” (International Journal of Molecular Sciences, 2022)
